Reference: patent US20070172423A1, “Composition and method for modulating vasculogenesis for angiogenesis” (priority 1998, published 2007)

Legend:
[1] = system: ischemic gastrocnemius muscle; assay: Hind limb ischemia mouse model (femoral artery ligation); assay type: in vivo
Description: To further verify the angio/arteriogenic activity of PDGF-CC in vivo, the effect of PDGF-CC in an established mouse model of hind limb ischemia is investigated (Luttun et al., Nat Med, 2002 1:1). PDGFR-α expression was quantified by RNAse protection analysis in the gastrocnemius muscle, which becomes highly ischemic after ligation of the femoral artery (Deindl et al., Circ Res, 2001 89:779-86; Couffinhal et al., American Journal of Pathology, 1998 152:1667-1679). Two days after femoral artery ligation, when a fraction of myocytes died due to ischemic necrosis, PDGFR-α transcript levels decreased to 76% of those found in normal muscles (FIG. 37a). […] Revascularization of the ischemic gastrocnemius muscle, which only occurred in those regions where regenerating muscle replaced the necrotic avascular muscle, was scored after continuous delivery, by osmotic minipump, of 4.5 μg PDGF-CC per day for one week after femoral artery ligation. […] PDGF-CC also enlarged the second-generation collateral side branches in the adductor muscle ([…] after saline versus […] after PDGF-CC; N=10; P=0.05). […] Thus, PDGF-CC stimulates revascularization in mouse models of both heart and limb ischemia.

[2] = biological target: T1, human VEGFR-3 (Homo sapiens, UniProt P35916); assay: Binding to soluble VEGFR-3-Ig fusion protein; conditions: 35S-labeled protein in conditioned medium from 293 cells, precipitation with Ig-fusion protein
T1 construct: soluble Ig-fusion proteins containing the extracellular domains of human VEGFR-1, VEGFR-2 and VEGFR-3; made in house; host or cells: human 293 EBNA cells, transient expression
T1 sequence (P35916 25-775 limits assumed): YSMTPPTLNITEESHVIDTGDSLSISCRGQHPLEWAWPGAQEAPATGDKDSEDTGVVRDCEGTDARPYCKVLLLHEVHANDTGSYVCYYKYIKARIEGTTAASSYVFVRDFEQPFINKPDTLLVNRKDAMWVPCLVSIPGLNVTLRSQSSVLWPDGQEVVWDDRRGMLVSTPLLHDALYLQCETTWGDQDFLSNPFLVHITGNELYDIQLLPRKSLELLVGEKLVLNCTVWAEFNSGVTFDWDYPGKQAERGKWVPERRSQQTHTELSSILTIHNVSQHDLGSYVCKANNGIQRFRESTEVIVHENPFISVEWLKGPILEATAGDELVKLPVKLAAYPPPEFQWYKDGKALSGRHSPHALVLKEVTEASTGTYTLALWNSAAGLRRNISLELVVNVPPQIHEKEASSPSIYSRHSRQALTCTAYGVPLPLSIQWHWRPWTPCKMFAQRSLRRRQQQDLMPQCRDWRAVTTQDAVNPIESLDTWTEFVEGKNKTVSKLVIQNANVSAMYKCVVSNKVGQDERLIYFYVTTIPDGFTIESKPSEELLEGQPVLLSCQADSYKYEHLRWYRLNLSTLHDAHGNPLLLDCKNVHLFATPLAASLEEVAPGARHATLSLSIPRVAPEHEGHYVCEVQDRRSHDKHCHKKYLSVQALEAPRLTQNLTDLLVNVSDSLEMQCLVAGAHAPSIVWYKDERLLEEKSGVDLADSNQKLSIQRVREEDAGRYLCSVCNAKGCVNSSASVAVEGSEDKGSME
Method: (§1) To assess the interactions between full length and truncated PDGF-C and the VEGF receptors, full length and truncated PDGF-C were tested for their capacity to bind to soluble Ig-fusion proteins containing the extracellular domains of human VEGFR-1, VEGFR-2 and VEGFR-3 (Olofsson et al., Proc. Natl. Acad. Sci. USA, 1998 95:11709-11714). The fusion proteins, designated VEGFR-1-Ig, VEGFR-2-Ig and VEGFR-3-Ig, were transiently expressed in human 293 EBNA cells. All Ig fusion proteins were human VEGFRs. Cells were incubated for 24 hours after transfection, washed with Dulbecco's Modified Eagle Medium (DMEM) containing 0.2% bovine serum albumin and starved for 24 hours. The fusion proteins were then precipitated from the clarified conditioned medium using protein A-Sepharose beads (Pharmacia). The beads were combined with 100 microliters of 10× binding buffer (5% bovine serum albumin, 0.2% Tween 20 and 10 µg/ml heparin) and 900 microliter of conditioned medium from 293 cells that had been transfected with mammalian expression plasmids encoding full length or truncated PDGF-C or control vector, then metabolically labeled with ^35S-cysteine and methionine (Promix, Amersham) for 4 to 6 hours. […] Labeled proteins that were bound to the Ig-fusion proteins were analyzed by SDS-PAGE under reducing conditions. Radiolabeled proteins were detected using a phosphorimager analyzer.

[3] = system: endothelial progenitor cells (EPCs); assay: EPC mobilization assay; assay type: in vivo, mice
Method: For EPC mobilization assay, mice were treated with PDGF-CC protein (4.5 μg/day) immediately after femoral artery ligation using subcutaneously implanted osmotic minipumps (Alzet, type 2001). After two or five days, mice were sacrificed and spleens harvested for EPC analysis using procedures described previously (Asahara et al., Circ Res, 1999 85:221-8; Dimmeler et al., J. Clin. Invest., 2001 108:391-397). Spleens were mechanically minced using syringe plungers and laid over Ficoll to isolate splenocytes. Splenocytes were seeded into fibronectin-coated 24-well plates in 0.5 ml EBM medium. After three weeks of culturing, adherent cells were stained for Dil-Ac-LDL/lectin and number of the positive cells counted. Late outgrowth EPCs (after 3 weeks of culture) were identified by metabolic uptake of DiI-acetylated-LDL (Molecular Probes) and positive staining of Alexa 488-labeled isolectin B4 (Molecular Probes). Quantification of the EPC density was performed by confocal microscopy in five microscopic fields at 200× magnification, and average EPC density calculated.
To examine the possible mechanism of how PDGF-CC stimulates vessel growth and maturation, we next assessed its effects on vascular endothelial progenitor cells (EPCs). […] By scoring after 3 weeks, only late-outgrowth EPCs, but not surviving sloughed-off endothelial cells, are selectively assayed (Lin et al., J Clin Invest, 2000 105:71-7; Rafii, S., J Clin Invest, 2000 105:17-9).

[4] = biological target: T2, human VEGFR-1 (Homo sapiens, UniProt P17948); assay: Binding to soluble VEGFR-1-Ig fusion protein; conditions: 35S-labeled protein in conditioned medium from 293 cells, precipitation with Ig-fusion protein
T2 construct: soluble Ig-fusion proteins containing the extracellular domains of human VEGFR-1, VEGFR-2 and VEGFR-3; made in house; host or cells: human 293 EBNA cells, transient expression
T2 sequence (P17948 27-758 limits assumed): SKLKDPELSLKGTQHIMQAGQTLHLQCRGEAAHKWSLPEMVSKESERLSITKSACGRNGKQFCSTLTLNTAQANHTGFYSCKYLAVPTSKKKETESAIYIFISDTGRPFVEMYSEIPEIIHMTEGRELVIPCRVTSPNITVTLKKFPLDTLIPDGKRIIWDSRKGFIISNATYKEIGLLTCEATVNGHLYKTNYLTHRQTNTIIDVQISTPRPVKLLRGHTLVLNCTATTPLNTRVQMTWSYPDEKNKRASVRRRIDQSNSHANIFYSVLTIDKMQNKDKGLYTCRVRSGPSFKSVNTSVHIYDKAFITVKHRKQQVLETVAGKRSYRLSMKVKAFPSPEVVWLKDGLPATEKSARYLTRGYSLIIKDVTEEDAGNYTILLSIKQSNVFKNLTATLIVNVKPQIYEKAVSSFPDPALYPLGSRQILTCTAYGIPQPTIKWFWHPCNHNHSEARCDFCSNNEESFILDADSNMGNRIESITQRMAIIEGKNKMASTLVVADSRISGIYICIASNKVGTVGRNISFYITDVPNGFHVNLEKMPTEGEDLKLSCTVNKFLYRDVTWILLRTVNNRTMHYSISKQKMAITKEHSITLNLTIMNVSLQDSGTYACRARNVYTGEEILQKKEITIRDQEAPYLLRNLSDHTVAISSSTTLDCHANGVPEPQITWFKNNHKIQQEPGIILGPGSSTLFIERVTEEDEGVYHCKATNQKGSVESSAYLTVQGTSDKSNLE
Method: as §1

[5] = 4.5 μg per day for one week after femoral artery ligation

B1: PDGF-CC: recombinant human PDGF-CC core domain homodimer, residues 230-345 of full-length PDGF-C (SEQ ID NO:40), produced in baculovirus infected insect cells (protein)
chain: GRKSRVVDLNLLTEEVRLYSCTPRNFSVSIREELKRTDTIFWPGCLLVKRCGGNCACCLHNCNECQCVPSKVTKKYHEVLQLRPKTGVRGLHKSLTDVALEHHEECDCVCRGSTGG
modifications: homodimer; PDGF-C core domain
hemorrhage, edema or fibrosis in treated limbs ([1]; 4.5 μg per day for one week): No signs of hemorrhage, edema or fibrosis
angiogenesis (capillary density) [1, 5]: increased
arteriogenesis (density of SMA+ vessels) [1, 5]: enhanced
extent of ischemic muscle necrosis [1, 5]: reduced
skeletal muscle regeneration [1, 5]: enhanced
second-generation collateral side branches in the adductor muscle ([1]; after femoral artery ligation, N=10): 920±100 μm^3
interaction with VEGFR-3-Ig [2]: failed to show any interaction
mobilization of EPCs ([3]; baseline conditions (no ischemia)): did not affect
augmentation of EPC mobilization ([3]; femoral artery ligation, day five): persisted to day five, albeit at a lower level
augmentation of EPC mobilization above control group ([3]; femoral artery ligation, two days, 4.5 μg/day via minipump): approximately 3 fold
augmentation of EPC mobilization compared with the vehicle group (FIG. 38 legend) ([3]; from day 2 to day 5 after hind limb ischemia): ~4 fold
interaction with VEGFR-1-Ig [4]: failed to show any interaction
